Like-named read-outs stand apart in the source and are kept apart here.
Legend:
Assay in all cases: SDS-PAGE
[1] = target: semisynthetic NaK channel (residues 19-110)
recombinant NaK channel [2] = target: recombinant NaK channel
recombinant NaK channel [3] = target: recombinant NaK channel; remark: listed apart in the source

| stoichiometry N (recombinant NaK channel [2]) | stoichiometry N (recombinant NaK channel [3]) | Substance | stoichiometry N [1] |
| --- | --- | --- | --- |
| – | – | semisynthetic NaK channel (residues 19-110) (natural protein) | 4 |
| 4 | 4 | recombinant NaK channel (natural protein) | – |

Source: paper PMC2889250
